The source of these data is publication PMC7714071, “Interaction of amyloid beta with humanin and acetylcholinesterase is modulated by ATP” (FEBS Open Bio, 2020).

Test [1] concerns Aβ40. Particulars: decreased lag phase; cited from earlier work. From the text: Almost all types of cells produce amyloid beta (Aβ), a peptide well recognized for its role in the development and progression of different stages of Alzheimer's disease (AD). The Aβ peptide is ~ 4 kDa and derived from the sequential processing of the higher molecular weight amyloid precursor protein by two membrane‐bound endoproteases, β‐ and γ‐secretase. Different C‐terminal Aβ heterogeneity results from processing by γ‐secretase, where Aβ40 represents the most abundant isoform (~ 90%) as compared to Aβ42 (~ 10%). Self‐assembled Aβ40/42 peptides into amyloid fib ... || Humanin (HN) is a secreted 21‐ to 24‐amino acid mitochondrial‐derived peptide. Certain amino acid residues in HN have been identified to be involved in different functions, including binding to Aβ [55, 56]. […] HN was identified previously as a binding partner of Aβ, likely modulating its aggregation pathways and counteracting its deleterious effects. […] The specific epitopes at the binding interface between HN and Aβ40 were identified, by proteolytic epitope excision and extraction in addition to affinity–mass spectrometric data analysis, to be HN (5–15) and Aβ (17–28). […] Inhibiting the 17–28 region of Aβ reduced aggregation of the neurotoxic amyloid fibrils and related cytotoxicity in SH‐SY5Y, a human neuroblastoma cell ... || (+ 1 further places)

In test [2] the test system is Aβ40. Conditions: HN and AChE compared; cited from earlier work. From the text: Amino acid residues involved in direct interactions between HN and Aβ40 were identified previously by molecular modeling. The specific epitopes at the binding interface between HN and Aβ40 were identified, by proteolytic epitope excision and extraction in addition to affinity–mass spectrometric data analysis, to be HN (5–15) and Aβ (17–28). […] Inhibiting the 17–28 region of Aβ reduced aggregation of the neurotoxic amyloid fibrils and related cytotoxicity in SH‐SY5Y, a human neuroblastoma cell ... || Humanin has been previously reported to bind amino acid residues 17–28 of Aβ (Fig. 1). AChE is also known to bind Aβ (1–16) and the Aβ (12–28) region (Fig. 1). Since the binding sites of AChE and HN on Aβ are overlapping, we previously investigated whether HN and AChE can simultaneously bind Aβ [79].

Test [3] relates to Aβ in A549 cell-conditioned media. Nature of the test: ELISA, oligomer versus total Aβ in A549 cell-conditioned media. In kind it is cell-based, human. Particulars: Fig. 8A. How it is done:
Aβ ELISAs were carried out according to previous protocols for determining the oligomeric and monomeric concentrations of Aβ and as we recently reported. Briefly, total Aβ (monomers + oligomers) was measured by two‐site binding ELISAs using the capture 6E10 monoclonal antibody and 4G8‐conjugated biotin as the detection antibody, which recognizes a distinct epitope, then quantitated using streptavidin‐HRP.
Using the same samples, oligomerized Aβ was measured by a single‐site ELISA in which antibodies targeting the same primary sequence epitope were used for both capture (4G8) and detection (4G8‐biotin). Only oligomers are detected with this approach since the 4G8‐biotin antibody cannot bind to the captured monomer because the epitope is blocked by the 4G8 capture antibody. […]
Conditioned media were immunodepleted (ID) according to the methods previously described and our recently published report. […] The ID media were then carefully removed and analyzed for the presence of the target protein or peptide by ELISA. The same amount of protein (3 µL of 600 µg·mL^−1 total protein) of each sample was analyzed in the experiments. […]
Both epitopes recognized by the 6E10 and 4G8 antibodies have been previously shown to be exposed in Aβ aggregates. […] Fold change relative to controls using anti‐6E10 or anti‐4G8 antibodies incubated with 300 μL of the medium not incubated with cells was calculated. […]
For orientation: An ELISA detects its analyte on a solid surface through an enzyme-linked reagent.

B1: acetylcholinesterase (protein)
chain: EGREDAELLVTVRGGRLRGIRLKTPGGPVSAFLGIPFAEPPMGPRRFLPPEPKQPWSGVVDATTFQSVCYQYVDTLYPGFEGTEMWNPNRELSEDCLYLNVWTPYPRPTSPTPVLVWIYGGGFYSGASSLDVYDGRFLVQAERTVLVSMNYRVGAFGFLALPGSREAPGNVGLLDQRLALQWVQENVAAFGGDPTSVTLFGESAGAASVGMHLLSPPSRGLFHRAVLQSGAPNGPWATVGMGEARRRATQLAHLVGCPPGGTGGNDTELVACLRTRPAQVLVNHEWHVLPQESVFRFSFVPVVDGDFLSDTPEALINAGDFHGLQVLVGVVKDEGSYFLVYGAPGFSKDNESLISRAEFLAGVRVGVPQVSDLAAEAVVLHYTDWLHPEDPARLREALSDVVGDHNVVCPVAQLAGRLAAQGARVYAYVFEHRASTLSWPLWMGVPHGYEIEFIFGIPLDPSRNYTAEEKIFAQRLMRYWANFARTGDPNEPRDPKAPQWPPYTAGAQQYVSLDLRPLEVRRGLRAQACAFWNRFLPKLLSATDTLDEAERQWKAEFHRWSSYMVHWKNQFDHYSKQDRCSDL
Regarding B1, the “effect on Aβ40 aggregation” value in the test with Aβ40 [1] is recorded as “significantly accelerated the aggregation”. Besides, the “affinity for Aβ40” value in the test on Aβ40 [2] was “comparable affinities”. For the same molecule, the “oligomer, % of total Aβ remaining after AChE ID” value in test [3] (AChE-immunodepleted A549 media (non-depleted ~ 63%)) is listed as ~ 47%. Moreover, the “total Aβ remaining after AChE ID” value in test [3] (AChE-immunodepleted A549 media) is listed as ~ 57%.
